Source: patent publication US20120108797A1 (AstraZeneca / MedImmune, published 2012)
One block for each binder: values may come before it.

Tests used:
[1] = target: T1, cynomolgus monkey uPAR, cell-bound (cynomolgus monkey, UniProt Q9GK78 23-305); experiment: FACS on 293T cells expressing cynomolgus uPAR, GeoMean of the peak shift
T1 construct: whole, on cells; also called cyno-uPAR; uPAR on CHOK1 or 293T transfectants

[2] = target: T2, human urokinase-type plasminogen activator receptor (uPAR), cell-bound (human, UniProt Q03405 23-305); experiment: FACS, B300.19/hu-uPAR cells
T2 construct: whole, on cells; Full length cDNA expressed on B300.19 and L929 transfectants; endogenous on U937 (and PC-3 used as positive control cells); also called hu-uPAR
T2 sequence (Q03405 23-305): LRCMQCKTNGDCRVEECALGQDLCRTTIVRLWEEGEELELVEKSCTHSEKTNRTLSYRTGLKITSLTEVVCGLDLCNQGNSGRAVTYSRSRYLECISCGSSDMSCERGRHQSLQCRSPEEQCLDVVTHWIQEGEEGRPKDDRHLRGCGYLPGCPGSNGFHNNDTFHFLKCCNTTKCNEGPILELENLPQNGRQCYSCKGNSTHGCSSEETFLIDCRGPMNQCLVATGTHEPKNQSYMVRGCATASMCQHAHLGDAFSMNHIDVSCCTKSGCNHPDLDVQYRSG
Procedure: Binding of the antibodies to cell-bound uPAR was tested with the murine pre-B cell line B300.19 (ATCC) transfected to express human uPAR, and B300.19 parental cells as a control, using Fluorometric Microvolume Assay Technology (FMAT). 5,000 cells/well were employed for the assay. […] The bound antibodies were detected using goat anti-human IgG Cy5 conjugate at 400 ng/ml (goat anti-mouse IgG Cy5 conjugate for mouse antibody control). […] For each dye stained, the ratio of the GeoMean values between positive and negative cells were tabulated.

T1 sequence (Q9GK78 23-305): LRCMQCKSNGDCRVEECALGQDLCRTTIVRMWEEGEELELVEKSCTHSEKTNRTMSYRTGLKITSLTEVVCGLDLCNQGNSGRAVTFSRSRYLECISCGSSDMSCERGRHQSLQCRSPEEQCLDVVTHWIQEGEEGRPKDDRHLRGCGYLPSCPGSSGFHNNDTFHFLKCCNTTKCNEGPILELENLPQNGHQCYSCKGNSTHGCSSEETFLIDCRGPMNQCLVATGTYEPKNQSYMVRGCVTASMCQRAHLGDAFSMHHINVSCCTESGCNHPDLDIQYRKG

- binding result [1]: binds
B1: 3.8.3 (antibody, V domains shown)
VH: EVQLVESGGGLVQPGGSLRLSCAASGFTFSSYWMSWVRQAPGKGLEWVANIKQHGSEKYYVDSVKGRFTISRDNAKNSLYLQMNSLRAEDTAVYYCAREEAYYYDNSGYYWYFDLWARGTLVTVSS
VL: DIQMTQSPSSVSASIGDRVTITCRASQGISSWLAWYQQKPGKTPKLLIYAASSLQSGVPSRFSGSGSGTDFTLTISSLQPEDFATYYCQQADSFPWTFGQGTKVEIK
notes: Variable domains only; gamma 2 by chain name, kappa; also called 3.8.3g2; 3.8.3k

- gCy5 Geo Mean Pos Cells [2]: 282
B2: 4.13.2 (antibody, V domains shown)
VH: EVQLLESGGGLVQPGGSLRLSCAASGFTFSSYAMSWVRQAPGKGLEWVLGISGSGGSTYYADSVKGRFTISRDNSKNTLYLQMNSLRAEDTAVYYCAKDGYGDYVGWYFDLWGRGTLVTVSS
VL: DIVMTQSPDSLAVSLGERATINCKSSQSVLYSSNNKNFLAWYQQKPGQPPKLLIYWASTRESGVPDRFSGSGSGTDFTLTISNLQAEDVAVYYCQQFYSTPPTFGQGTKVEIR
notes: Variable domains only; gamma 4 by chain name, kappa; also called 4.13.1; 4.13.1g4
